Test results as given in the supplement of paper PMC10567573.

B1: BCL2L13 (parent)
chain: MASSSTVPLGFHYETKYVVLSYLG

Variants of: B1
Assay: protein stability index of a GFP-peptide fusion (GPS, HEK-293T) (PSI 1-6); higher = more stable
Settings: c terminus: a fixed tail appended
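Note: lentivirally expressed fusions sorted by FACS into six bins by GFP to DsRed ratio, PSI derived from sequencing read proportions per bin multiplied by bin number.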

Variant | protein stability index
MASSSTVPLGFMYETKYVVLSYLG | 2.39
MASSSTVPLGFNYETKYVVLSYLG | 2.12
MASSSTVPLGFPYETKYVVLSYLG | 2.5
MASSSTVPLGFQYETKYVVLSYLG | 2.67
MASSSTVPLGFRYETKYVVLSYLG | 1.91
MASSSTVPLGFSYETKYVVLSYLG | 3.12
MASSSTVPLGFTYETKYVVLSYLG | 1.81
MASSSTVPLGFVYETKYVVLSYLG | 2.67
MASSSTVPLGFWYETKYVVLSYLG | 2.66
MASSSTVPLGFYYETKYVVLSYLG | 3.26
MASSSTVPLGFHAETKYVVLSYLG | 2.82
MASSSTVPLGFHCETKYVVLSYLG | 2.25
MASSSTVPLGFHDETKYVVLSYLG | 2.35
MASSSTVPLGFHEETKYVVLSYLG | 1.59
MASSSTVPLGFHFETKYVVLSYLG | 3.43
MASSSTVPLGFHGETKYVVLSYLG | 2.14
MASSSTVPLGFHHETKYVVLSYLG | 2.27
MASSSTVPLGFHIETKYVVLSYLG | 2.65
MASSSTVPLGFHKETKYVVLSYLG | 1.44
MASSSTVPLGFHLETKYVVLSYLG | 2.59
MASSSTVPLGFHMETKYVVLSYLG | 2.14
MASSSTVPLGFHNETKYVVLSYLG | 1.7
MASSSTVPLGFHPETKYVVLSYLG | 1.84
MASSSTVPLGFHQETKYVVLSYLG | 1.39

Variant | protein stability index
MASSSTVPLGFHRETKYVVLSYLG | 1.85
MASSSTVPLGFHSETKYVVLSYLG | 2.07
MASSSTVPLGFHTETKYVVLSYLG | 2.28
MASSSTVPLGFHVETKYVVLSYLG | 2.51
MASSSTVPLGFHWETKYVVLSYLG | 2.16
MASSSTVPLGFHYATKYVVLSYLG | 2.21
MASSSTVPLGFHYDTKYVVLSYLG | 2.67
MASSSTVPLGFHYFTKYVVLSYLG | 1.81
MASSSTVPLGFHYGTKYVVLSYLG | 2.09
MASSSTVPLGFHYHTKYVVLSYLG | 1.75
MASSSTVPLGFHYITKYVVLSYLG | 2.82
MASSSTVPLGFHYKTKYVVLSYLG | 2.72
MASSSTVPLGFHYMTKYVVLSYLG | 3.1
MASSSTVPLGFHYNTKYVVLSYLG | 2.48
MASSSTVPLGFHYPTKYVVLSYLG | 2.24
MASSSTVPLGFHYQTKYVVLSYLG | 3.35
MASSSTVPLGFHYRTKYVVLSYLG | 2.14
MASSSTVPLGFHYSTKYVVLSYLG | 2.62
MASSSTVPLGFHYTTKYVVLSYLG | 2.3
MASSSTVPLGFHYVTKYVVLSYLG | 2.46
MASSSTVPLGFHYWTKYVVLSYLG | 3.62
MASSSTVPLGFHYYTKYVVLSYLG | 2.64
MASSSTVPLGFHYEAKYVVLSYLG | 1.86
MASSSTVPLGFHYECKYVVLSYLG | 1.71

Variant | protein stability index
MASSSTVPLGFHYEDKYVVLSYLG | 2.03
MASSSTVPLGFHYEEKYVVLSYLG | 2.61
MASSSTVPLGFHYEFKYVVLSYLG | 1.5
MASSSTVPLGFHYEGKYVVLSYLG | 1.34
MASSSTVPLGFHYEHKYVVLSYLG | 1.91
MASSSTVPLGFHYEIKYVVLSYLG | 3.13
MASSSTVPLGFHYEKKYVVLSYLG | 1.4
MASSSTVPLGFHYELKYVVLSYLG | 2.1
MASSSTVPLGFHYEMKYVVLSYLG | 2.79
MASSSTVPLGFHYENKYVVLSYLG | 1.75
MASSSTVPLGFHYEPKYVVLSYLG | 2.06
MASSSTVPLGFHYEQKYVVLSYLG | 2.84
MASSSTVPLGFHYERKYVVLSYLG | 1.36
MASSSTVPLGFHYESKYVVLSYLG | 1.11
MASSSTVPLGFHYEVKYVVLSYLG | 3.06
MASSSTVPLGFHYEWKYVVLSYLG | 2.05
MASSSTVPLGFHYEYKYVVLSYLG | 2.75
MASSSTVPLGFHYETAYVVLSYLG | 2.64
MASSSTVPLGFHYETCYVVLSYLG | 4.41
MASSSTVPLGFHYETDYVVLSYLG | 3.26
MASSSTVPLGFHYETEYVVLSYLG | 4.22
MASSSTVPLGFHYETFYVVLSYLG | 2.32
MASSSTVPLGFHYETGYVVLSYLG | 2.38
MASSSTVPLGFHYETHYVVLSYLG | 1.46

Variant | protein stability index
MASSSTVPLGFHYETIYVVLSYLG | 2.74
MASSSTVPLGFHYETLYVVLSYLG | 2.04
MASSSTVPLGFHYETMYVVLSYLG | 2.61
MASSSTVPLGFHYETNYVVLSYLG | 3.56
MASSSTVPLGFHYETPYVVLSYLG | 1.83
MASSSTVPLGFHYETQYVVLSYLG | 2.6
MASSSTVPLGFHYETRYVVLSYLG | 2.55
MASSSTVPLGFHYETSYVVLSYLG | 2.81
MASSSTVPLGFHYETVYVVLSYLG | 2.53
MASSSTVPLGFHYETWYVVLSYLG | 2.56
MASSSTVPLGFHYETYYVVLSYLG | 3.26
MASSSTVPLGFHYETKAVVLSYLG | 2.67
MASSSTVPLGFHYETKCVVLSYLG | 2.48
MASSSTVPLGFHYETKDVVLSYLG | 1.73
MASSSTVPLGFHYETKEVVLSYLG | 1.86
MASSSTVPLGFHYETKFVVLSYLG | 3.51
MASSSTVPLGFHYETKGVVLSYLG | 2
MASSSTVPLGFHYETKHVVLSYLG | 1.95
MASSSTVPLGFHYETKKVVLSYLG | 2.1
MASSSTVPLGFHYETKLVVLSYLG | 2.22
MASSSTVPLGFHYETKMVVLSYLG | 3.56
MASSSTVPLGFHYETKNVVLSYLG | 1.62
